Laboratory results reported in publication PMC3294249.

Key:
[1] = target: Francisella α2NTD (residues 1-242), bacterial two-hybrid fusion (Francisella tularensis subsp. novicida strain U112); assay: two-hybrid
[2] = target: Francisella α1NTD (residues 1-244), bacterial two-hybrid fusion (Francisella tularensis subsp. novicida strain U112) (UniProt A0Q4K8); assay: two-hybrid

| Substance | β-galactosidase activity (Miller units) [1] | β-galactosidase activity (Miller units) [2] |
| --- | --- | --- |
| Francisella α1NTD (residues 1-244), bacterial two-hybrid fusion (from UniProt A0Q4K8 1-244) (domain or fragment) | 662 Miller units | – |
| Francisella α2NTD (residues 1-242), bacterial two-hybrid fusion (domain or fragment) | – | 1410 Miller units |
